Experimental findings from article PMC5737878 (Nucleic Acids Research, 2017) are described below.

Data set [1] deals with GR DBD (UniProt P04150 417-506). In words: fluorescence polarization. Background: In fluorescence polarisation assays a small probe gives low polarisation when free and higher when bound to something large.
Data set [2] concerns the molecule itself. In words: NMR titration.

B1: MMP13 TRE (FP) (dsDNA)
DNA 1: ATAAGTGATGACTCACCATTGCA
DNA 2: TGCAATGGTGAGTCATCACTTAT
Regarding B1, in data set [1], the binding result is given as “binds”.

B2: IL1a TRE (FP) (dsDNA)
DNA 1: GAAGAAGACTGACTCTCAGGCTTAAGC
DNA 2: GCTTAAGCCTGAGAGTCAGTCTTCTTC
Turning to B2, the binding result in data set [1] is on record as “binds”.

B3: VCAM1 TRE (FP) (dsDNA)
DNA 1: TTCCGGCTGACTCATCAAGCG
DNA 2: CGCTTGATGAGTCAGCCGGAA
B3: the binding result in data set [1] was “binds”.

B4: Glucocorticoid receptor DNA binding domain (GR DBD, residues 417-506), 15N-labelled (domain or fragment, UniProt P04150 417-506, looked up)
chain: PPKLCLVCSDEASGCHYGVLTCGSCKVFFKRAVEGQHNYLCAGRNDCIIDKIRRKNCPACRYRKCLQAGMNLEARKTKKKIKGIQQATTG
modifications: 15N-labelled
Regarding B4, the binding result in data set [2] was “binds”.
